How the values were obtained:
LC3‐GFP, Q9GZQ8 = assay: co-immunoprecipitation (anti-GFP agarose) with quantified immunoblot; settings: chain shown with the change; HeLa cells co-transfected with LC3-GFP and DISC1-Flag constructs; parent: 1.0; read off a plot
[1] = molecular target: Purified recombinant LC3 protein, Q9GZQ8; assay: ELISA; settings: chain shown with the change, read off a plot

Row | ratio to parent (LC3‐GFP, Q9GZQ8) | response ([1]; LC3B 10 nM, parent: est. 0.68) | response ([1]; LC3B 50 nM, parent: est. 1.3) | response ([1]; LC3B 100 nM, parent: est. 2.4) | Binder
1 | 0.21 | – | – | – | Disrupted‐in‐schizophrenia‐1 (DISC1)‐Flag, wild type, Q9NRI5 F210A; S211A; F212A; I213A (protein) MPGGGPQGAPAAAGGGGVSHRAGSRDCLPPAACFRRRRLARRPGYMRSSTGPGIGFLSPAVGTLFRFPGGVSGEESHHSESRARQCGLDSRGLLVRSPVSKSAAAPTVTSVRGTSAHFGIQLRGGTRLPDRLSWPCGPGSAGWQQEFAAMDSSETLDASWEAACSDGARRVRAAGSLPSAELSSNSCSPGCGPEVPPTPPGSHSAFTSSAAAARLSLGSAGERGEAEGCPPSREAESHCQSPQEMGAKAASLDGPHEDPRCLSRPFSLLATRVSADLAQAARNSSRPERDMHSLPDMDPGSSSSLDPSLAGCGGDGSSGSGDAHSWDTLLRKWEPVLRDCLLRNRRQMEVISLRLKLQKLQEDAVENDDYDKAETLQQRLEDLEQEKISLHFQLPSRQPALSSFLGHLAAQVQAALRRGATQQASGDDTHTPLRMEPRLLEPTAQDSLHVSITRRDWLLQEKQQLQKEIEALQARMFVLEAKDQQLRREIEEQEQQLQWQGCDLTPLVGQLSLGQLQEVSKALQDTLASAGQIPFHAEPPETIRSLQERIKSLNLSLKEITTKVCMSEKFCSTLRKKVNDIETQLPALLEAKMHAISGNHFWTAKDLTEEIRSLTSEREGLEGLLSKLLVLSSRNVKKLGSVKEDYNRLRREVEHQETAYETSVKENTMKYMETLKNKLCSCKCPLLGKVWEADLEACRLLIQSLQLQEARGSLSVEDERQMDDLEGAAPPIPPRLHSEDKRKTPLKVLEEWKTHLIPSLHCAGGEQKEESYILSAELGEKCEDIGKKLLYLEDQLHTAIHSHDEDLIQSLRRELQMVKETLQAMILQLQPAKEAGEREAAASCMTAGVHEAQA
2 | 1.1 | – | – | – | Disrupted‐in‐schizophrenia‐1 (DISC1)‐Flag, wild type, Q9NRI5 Y646A; N647A; R648A; L649A (protein) MPGGGPQGAPAAAGGGGVSHRAGSRDCLPPAACFRRRRLARRPGYMRSSTGPGIGFLSPAVGTLFRFPGGVSGEESHHSESRARQCGLDSRGLLVRSPVSKSAAAPTVTSVRGTSAHFGIQLRGGTRLPDRLSWPCGPGSAGWQQEFAAMDSSETLDASWEAACSDGARRVRAAGSLPSAELSSNSCSPGCGPEVPPTPPGSHSAFTSSFSFIRLSLGSAGERGEAEGCPPSREAESHCQSPQEMGAKAASLDGPHEDPRCLSRPFSLLATRVSADLAQAARNSSRPERDMHSLPDMDPGSSSSLDPSLAGCGGDGSSGSGDAHSWDTLLRKWEPVLRDCLLRNRRQMEVISLRLKLQKLQEDAVENDDYDKAETLQQRLEDLEQEKISLHFQLPSRQPALSSFLGHLAAQVQAALRRGATQQASGDDTHTPLRMEPRLLEPTAQDSLHVSITRRDWLLQEKQQLQKEIEALQARMFVLEAKDQQLRREIEEQEQQLQWQGCDLTPLVGQLSLGQLQEVSKALQDTLASAGQIPFHAEPPETIRSLQERIKSLNLSLKEITTKVCMSEKFCSTLRKKVNDIETQLPALLEAKMHAISGNHFWTAKDLTEEIRSLTSEREGLEGLLSKLLVLSSRNVKKLGSVKEDAAAARREVEHQETAYETSVKENTMKYMETLKNKLCSCKCPLLGKVWEADLEACRLLIQSLQLQEARGSLSVEDERQMDDLEGAAPPIPPRLHSEDKRKTPLKVLEEWKTHLIPSLHCAGGEQKEESYILSAELGEKCEDIGKKLLYLEDQLHTAIHSHDEDLIQSLRRELQMVKETLQAMILQLQPAKEAGEREAAASCMTAGVHEAQA
3 | 0.9 | – | – | – | Disrupted‐in‐schizophrenia‐1 (DISC1)‐Flag, wild type, Q9NRI5 W327A; D328A; T329A; L330A (protein) MPGGGPQGAPAAAGGGGVSHRAGSRDCLPPAACFRRRRLARRPGYMRSSTGPGIGFLSPAVGTLFRFPGGVSGEESHHSESRARQCGLDSRGLLVRSPVSKSAAAPTVTSVRGTSAHFGIQLRGGTRLPDRLSWPCGPGSAGWQQEFAAMDSSETLDASWEAACSDGARRVRAAGSLPSAELSSNSCSPGCGPEVPPTPPGSHSAFTSSFSFIRLSLGSAGERGEAEGCPPSREAESHCQSPQEMGAKAASLDGPHEDPRCLSRPFSLLATRVSADLAQAARNSSRPERDMHSLPDMDPGSSSSLDPSLAGCGGDGSSGSGDAHSAAAALRKWEPVLRDCLLRNRRQMEVISLRLKLQKLQEDAVENDDYDKAETLQQRLEDLEQEKISLHFQLPSRQPALSSFLGHLAAQVQAALRRGATQQASGDDTHTPLRMEPRLLEPTAQDSLHVSITRRDWLLQEKQQLQKEIEALQARMFVLEAKDQQLRREIEEQEQQLQWQGCDLTPLVGQLSLGQLQEVSKALQDTLASAGQIPFHAEPPETIRSLQERIKSLNLSLKEITTKVCMSEKFCSTLRKKVNDIETQLPALLEAKMHAISGNHFWTAKDLTEEIRSLTSEREGLEGLLSKLLVLSSRNVKKLGSVKEDYNRLRREVEHQETAYETSVKENTMKYMETLKNKLCSCKCPLLGKVWEADLEACRLLIQSLQLQEARGSLSVEDERQMDDLEGAAPPIPPRLHSEDKRKTPLKVLEEWKTHLIPSLHCAGGEQKEESYILSAELGEKCEDIGKKLLYLEDQLHTAIHSHDEDLIQSLRRELQMVKETLQAMILQLQPAKEAGEREAAASCMTAGVHEAQA
4 | – | 0.1 OD (450 nm) | 0.12 OD (450 nm) | 0.12 OD (450 nm) | PGSHSAFTSSAAAARLSLGS [DISC1 FSFI peptide (a.a.200–219) F210A; S211A; F212A; I213A]
